From patent US20170082635A1 (University of California, published 2017)

T1: yeast 20 S proteasome subunit α6 (PRE5) (yeast, UniProt P40302 1-234)
T1 sequence (looked up): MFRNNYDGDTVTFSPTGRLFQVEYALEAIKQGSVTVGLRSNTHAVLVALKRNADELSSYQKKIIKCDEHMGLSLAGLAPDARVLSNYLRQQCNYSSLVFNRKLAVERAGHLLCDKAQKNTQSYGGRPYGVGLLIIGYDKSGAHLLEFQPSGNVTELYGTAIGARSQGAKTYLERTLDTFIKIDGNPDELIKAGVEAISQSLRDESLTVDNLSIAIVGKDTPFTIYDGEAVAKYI

T2: yeast 20 S proteasome subunit α3 (PRE9) (yeast, UniProt P23638 1-258)
T2 sequence (looked up): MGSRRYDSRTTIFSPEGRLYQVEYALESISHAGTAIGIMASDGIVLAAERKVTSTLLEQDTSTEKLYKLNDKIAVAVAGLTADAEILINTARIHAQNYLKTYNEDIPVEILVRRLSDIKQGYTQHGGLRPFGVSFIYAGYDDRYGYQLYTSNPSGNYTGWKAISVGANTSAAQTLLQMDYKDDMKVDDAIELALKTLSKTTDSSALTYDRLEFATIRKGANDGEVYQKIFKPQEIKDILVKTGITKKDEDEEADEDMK

B1: human proteasome subunit Rpn9 (other, UniProt Q9UNM6 1-376, looked up)
chain: MKDVPGFLQQSQNSGPGQPAVWHRLEELYTKKLWHQLTLQVLDFVQDPCFAQGDGLIKLYENFISEFEHRVNPLSLVEIILHVVRQMTDPNVALTFLEKTREKVKSSDEAVILCKTAIGALKLNIGDLQVTKETIEDVEEMLNNLPGVTSVHSRFYDLSSKYYQTIGNHASYYKDALRFLGCVDIKDLPVSEQQERAFTLGLAGLLGEGVFNFGELLMHPVLESLRNTDRQWLIDTLYAFNSGNVERFQTLKTAWGQQPDLAANEAQLLRKIQLLCLMEMTFTRPANHRQLTFEEIAKSAKITVNEVELLVMKALSVGLVKGSIDEVDKRVHMTWVQPRVLDLQQIKGMKDRLEFWCTDVKSMEMLVEHQAHDILT
notes: whole, on cells; endogenous, cross-linked inside intact 293 cells, purified with the HB-tagged bait; also called Q9UNM6
B2: yeast 20 S proteasome subunit β6 (PRE7) (other, UniProt P23724 20-241, looked up)
chain: QFNPYGDNGGTILGIAGEDFAVLAGDTRNITDYSINSRYEPKVFDCGDNIVMSANGFAADGDALVKRFKNSVKWYHFDHNDKKLSINSAARNIQHLLYGKRFFPYYVHTIIAGLDEDGKGAVYSFDPVGSYEREQCRAGGAAASLIMPFLDNQVNFKNQYEPGTNGKVKKPLKYLSVEEVIKLVRDSFTSATERHIQVGDGLEILIVTKDGVRKEFYELKRD
notes: mature
B3: yeast 20 S proteasome subunit β3 (PUP3) (other, UniProt P25451 1-205, looked up)
chain: MSDPSSINGGIVVAMTGKDCVAIACDLRLGSQSLGVSNKFEKIFHYGHVFLGITGLATDVTTLNEMFRYKTNLYKLKEERAIEPETFTQLVSSSLYERRFGPYFVGPVVAGINSKSGKPFIAGFDLIGCIDEAKDFIVSGTASDQLFGMCESLYEPNLEPEDLFETISQALLNAADRDALSGWGAVVYIIKKDEVVKRYLKMRQD
B4: human proteasome subunit α3 (other, UniProt P25789 1-261, looked up)
chain: MSRRYDSRTTIFSPEGRLYQVEYAMEAIGHAGTCLGILANDGVLLAAERRNIHKLLDEVFFSEKIYKLNEDMACSVAGITSDANVLTNELRLIAQRYLLQYQEPIPCEQLVTALCDIKQAYTQFGGKRPFGVSLLYIGWDKHYGFQLYQSDPSGNYGGWKATCIGNNSAAAVSMLKQDYKEGEMTLKSALALAIKVLNKTMDVSKLSAEKVEIATLTRENGKTVIRVLKQKEVEQLIKKHEEEEAKAEREKKEKEQKEKDK
notes: whole, on cells; endogenous, cross-linked inside intact 293 cells, then purified with the HB-tagged bait under denaturing conditions; also called alpha3; alpha-3
B5: yeast 20 S proteasome subunit β4 (PRE1) (other, UniProt P22141 1-198, looked up)
chain: MDIILGIRVQDSVILASSKAVTRGISVLKDSDDKTRQLSPHTLMSFAGEAGDTVQFAEYIQANIQLYSIREDYELSPQAVSSFVRQELAKSIRSRRPYQVNVLIGGYDKKKNKPELYQIDYLGTKVELPYGAHGYSGFYTFSLLDHHYRPDMTTEEGLDLLKLCVQELEKRMPMDFKGVIVKIVDKDGIRQVDDFQAQ

Assays:
[1] = target: T3, human proteasome subunit Rpn5 (human, UniProt O00232 2-456); experiment: in vivo azide-A-DSBSO XL-MS of HB-tag purified human proteasome
T3 construct: whole, on cells; endogenous, cross-linked inside intact 293 cells, purified with the HB-tagged bait; also called O00232

[2] = target: T1, yeast 20 S proteasome subunit α6 (PRE5); experiment: DSSO XL-MS of purified yeast 20S proteasome
[3] = target: T2, yeast 20 S proteasome subunit α3 (PRE9); experiment: DSSO XL-MS of purified yeast 20S proteasome
HB-Rpt6 = target: T4, HB-Rpt6 (human, UniProt P62195 2-406); experiment: in vivo azide-A-DSBSO XL-MS of HB-tag purified human proteasome
T4 construct: whole, on cells; stably expressed in 293 cells; used for all links whose Bait column says Rpt6; residue numbers count on P62195, not on the tagged construct; also called Rpt6 (bait); HB tagged proteasome subunit Rpt6; not shown: HB (His-bio) tag, written before Rpt6

[4] = target: B3; experiment: DSSO XL-MS of purified yeast 20S proteasome

Binder: B1
binding result [1]: binds

Binder: B2
binding result [2]: binds

Binder: B3
binding result [3]: binds

Binder: B4
binding result (HB-Rpt6): binds

Binder: B5
binding result [4]: binds
